Results published in US20140134657.

How the values were obtained:
[1] = target: T1, PvSUB1 peptide substrate KLVGADDVSLA, tagged with fluorophore and quencher
T1 chain: KLVGADDVSLA

[2] = target: T2, PfSUB1 peptide substrate KLVSADNIDIS, tagged with fluorophore and quencher
T2 chain: KLVSADNIDIS

Row | Protein | apparent Km [1] | apparent Km [2]
1 | recombinant enzymatically active form of Plasmodium vivax SUB1-Belem (PvSUB1-Belem), following auto-maturation at the KLVGAD//DVSLA site (protein) DVSLASVKDAVRRGESSVNWGKLRSTMLEVPSGESPPSHAASSGSPFDDDDDLLSEAALHREEAHLAGSKTTKGYKFNDEYRNLQWGLDLARLDETQDLINANRVSVTKICVIDSGIDYNHPDLRNNIDVNVKELHGRKGVDDDSNGVVDDVYGANFVNNSGDPMDDNYHGTHVSGIISAVGNNGIGIVGVDGHSKLVICKALDQHKLGRLGDMFKCIDYCISRQAHMINGSFSFDEYSNIFNASVEHLRSLGILFFVSASNCAHDKLSKPDIAKCDLAVNHRYPPILSKTHNNVIAVANLKRDLDESYSLSVNSFYSNIYCQLAAPGTNIYSTTPMNNYRKLNGTSMASPHVAAIASIVRSINPNLTYLQIVEILRNAIVKLPSLTERVSWGGYVDILRAVNLAIDSKAAPYIKSHSWFRWKQGSRRHHHHHH | 19.7 µM±1.7 | –
2 | recombinant Plasmodium falciparum SUB1 (PfSUB1) (protein) MLLVNQSHQGFNKEHTSKMVSAIVLYVLLAAAAHSAFAADLGSKEVRSEENGKIQDDAKKIVSELRFLEKVEDVIEKSNIGGNEVDADENSFNPDTEVPIEEIEEIKMRELKDVKEEKNKNDNHNNNNNNISSSSSSSSNTFGEEKEEVSKKKKKLRLIVSENHATTPSFFQESLLEPDVLSFLESKGNLSNLKNINSMIIELKEDTTDDELISYIKILEEKGALIESDKLVSADNIDISGIKDAIRRGEENIDVNDYKSMLEVENDAEDYDKMFGMFNESHAATSKRKRHSTNERGYDTFSSPSYKTYSKSDYLYDDDNNNNNYYYSHSSNGHNSSSRNSSSSRSRPGKYHFNDEFRNLQWGLDLSRLDETQELINEHQVMSTRICVIDSGIDYNHPDLKDNIELNLKELHGRKGFDDDNNGIVDDIYGANFVNNSGNPMDDNYHGTHVSGIISAIGNNNIGVVGVDVNSKLIICKALDEHKLGRLGDMFKCLDYCISRNAHMINGSFSFDEYSGIFNSSVEYLQRKGILFFVSASNCSHPKSSTPDIRKCDLSINAKYPPILSTVYDNVISVANLKKNDNNNHYSLSINSFYSNKYCQLAAPGTNIYSTAPHNSYRKLNGTSMAAPHVAAIASLIFSINPDLSYKKVIQILKDSIVYLPSLKNMVAWAGYADINKAVNLAIKSKKTYINSNISNKWKKKSRYLHHHHHH | – | 30.2 µM±3.4
